Data taken from publication PMC10965056.

Tested on: T1, PsdR-His (Pseudomonas aeruginosa PAO1?), ORF:604e189e
T1 sequence: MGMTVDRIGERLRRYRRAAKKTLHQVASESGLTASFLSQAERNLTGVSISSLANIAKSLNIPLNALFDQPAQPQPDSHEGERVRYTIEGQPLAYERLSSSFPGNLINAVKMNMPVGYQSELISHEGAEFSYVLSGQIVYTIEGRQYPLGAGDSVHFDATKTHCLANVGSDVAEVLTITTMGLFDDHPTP
Assay: EMSA
Settings: 10 mM Tris-HCl pH 7.5, 50 mM KCl, 1 mM DTT, 1% glycerin, 10 mM MgCl2, 1 ug/ul poly(dI-dC), 25 C, 30 min; 6.5% polyacrylamide gel

Sequence: CGGGTATCGTACTAGGTGCATCAAACGCTGCGGTCTATTGTTAAGTGGGACTGAAATGTGCCTTTCCGGCACAACGCCAACTCTATAGA (double strand) [PlasR-WT]
- binding: binds
